Assay results as given in patent publication US20050037969A1 (ARBOR VITA, published 2005).
Ends that are not written are not given here. * marks the point of attachment. Biotin = O=C1N[C@H]2[C@H](CS[C@H]2CCCCC(=O)*)N1

Tests used:
Test in all cases: A/G assays
[1] = target: T1, GST-TAX-IP2 PDZ domain fusion protein (human, UniProt O14908 129-216)
T1 construct: also called TAX-1P2; TAX2; not shown: glutathione S-transferase encoded by vector pGEX-3X (Pharmacia)
T1 chain: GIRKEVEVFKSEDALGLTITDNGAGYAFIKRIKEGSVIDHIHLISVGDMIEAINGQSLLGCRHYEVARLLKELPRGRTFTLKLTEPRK

[2] = target: T2, GST-prIL16 fusion protein (PDZ domains 1-2) (Homo sapiens (Human), UniProt Q14005 1111-1324)
T2 construct: also called putative interleukin 16 precursor; not shown: glutathione S-transferase encoded by vector pGEX-3X (Pharmacia)
T2 sequence: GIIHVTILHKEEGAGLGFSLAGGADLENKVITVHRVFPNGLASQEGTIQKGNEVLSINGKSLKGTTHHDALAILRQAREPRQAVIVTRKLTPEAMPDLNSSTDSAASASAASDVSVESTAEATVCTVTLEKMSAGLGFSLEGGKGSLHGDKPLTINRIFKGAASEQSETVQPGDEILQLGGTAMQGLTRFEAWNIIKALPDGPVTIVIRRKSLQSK

[3] = target: T3, GST-PDZK1 fusion protein (PDZ domains 2-4) (Homo sapiens, UniProt Q5T2W1 134-457)
T3 construct: not shown: glutathione S-transferase encoded by vector pGEX-3X (Pharmacia)
T3 sequence: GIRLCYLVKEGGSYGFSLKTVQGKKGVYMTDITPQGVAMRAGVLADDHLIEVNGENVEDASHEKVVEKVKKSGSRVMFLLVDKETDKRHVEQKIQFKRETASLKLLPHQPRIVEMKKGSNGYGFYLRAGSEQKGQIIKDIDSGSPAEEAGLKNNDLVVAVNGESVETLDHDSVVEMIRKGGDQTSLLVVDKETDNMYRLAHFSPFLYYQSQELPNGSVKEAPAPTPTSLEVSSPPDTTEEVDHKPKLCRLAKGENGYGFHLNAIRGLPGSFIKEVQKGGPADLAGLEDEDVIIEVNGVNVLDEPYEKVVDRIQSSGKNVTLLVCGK

[4] = target: T4, GST-mouse syntenin fusion protein (Mus musculus, UniProt O08992 108-286)
T4 construct: also called Mus musculus Syntenin; not shown: glutathione S-transferase encoded by vector pGEX-3X (Pharmacia)
T4 chain: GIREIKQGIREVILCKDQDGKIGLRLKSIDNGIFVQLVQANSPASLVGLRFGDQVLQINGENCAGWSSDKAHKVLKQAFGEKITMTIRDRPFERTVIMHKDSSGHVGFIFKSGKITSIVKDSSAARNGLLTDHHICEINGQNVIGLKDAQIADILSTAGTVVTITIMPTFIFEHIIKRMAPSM

[5] = target: T5, GST-TIAM1 PDZ domain fusion protein (Homo sapiens (Human), UniProt Q13009 845-931)
T5 construct: also called TLAM1; T-lymphoma invasion and metastasis inducing protein 1; not shown: glutathione S-transferase encoded by vector pGEX-3X (Pharmacia)

[6] = target: T6, GST-DVL1 PDZ domain fusion protein (human, UniProt O14640 247-339)
T6 construct: also called human dishevelled segment polarity protein homolog; not shown: glutathione S-transferase encoded by vector pGEX-3X (Pharmacia)
T6 sequence: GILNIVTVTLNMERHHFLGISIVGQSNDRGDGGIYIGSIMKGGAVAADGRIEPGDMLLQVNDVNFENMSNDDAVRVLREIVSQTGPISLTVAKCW

[7] = target: T7, K559 PDZ-GST fusion protein (Homo sapiens (Human), UniProt Q9Y6V0 4489-4593)
T7 construct: Order of GST and PDZ part and limits not seen in the excerpts
T7 sequence: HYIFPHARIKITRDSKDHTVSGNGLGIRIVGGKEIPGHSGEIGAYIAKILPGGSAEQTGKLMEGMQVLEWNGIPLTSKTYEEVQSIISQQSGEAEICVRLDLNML

[8] = target: T8, PICK1 PDZ-GST fusion protein (Bos taurus (Bovine), UniProt Q2T9M1 17-105)
T8 construct: Order of GST and PDZ part and limits not seen in the excerpts

[9] = target: T9, SP short PDZ-GST fusion protein (Homo sapiens (Human), UniProt O43464 350-435)
T9 construct: The label SP short is not explained in the excerpts
T9 sequence: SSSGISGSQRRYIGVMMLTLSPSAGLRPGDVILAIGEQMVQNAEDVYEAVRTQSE

[10] = target: T10, GST-TAX-IP43 PDZ domain fusion protein (human, UniProt Q13884 109-180)
T10 construct: also called TAX43; not shown: glutathione S-transferase encoded by vector pGEX-3X (Pharmacia)
T10 sequence: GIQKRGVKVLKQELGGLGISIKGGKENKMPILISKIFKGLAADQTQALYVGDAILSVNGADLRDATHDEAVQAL

[11] = target: T11, GST-PTN-4 PDZ domain fusion protein (Homo sapiens (Human), UniProt P29074 517-605)
T11 construct: also called protein-tyrosine phosphatase meg1; not shown: glutathione S-transferase encoded by vector pGEX-3X (Pharmacia)
T11 sequence: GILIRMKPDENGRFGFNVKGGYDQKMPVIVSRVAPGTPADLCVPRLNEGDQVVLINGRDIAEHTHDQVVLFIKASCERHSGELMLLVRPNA

[12] = target: T12, GST-MPP1 PDZ domain fusion protein (Homo sapiens (Human), UniProt Q00013 67-152)
T12 construct: also called p55; 55 Kd erythrocyte membrane protein; not shown: glutathione S-transferase encoded by vector pGEX-3X (Pharmacia)
T12 sequence: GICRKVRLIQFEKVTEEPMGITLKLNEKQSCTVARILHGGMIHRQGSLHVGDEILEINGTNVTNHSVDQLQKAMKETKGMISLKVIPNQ

[13] = target: T13, TAX-IP33 PDZ-GST fusion protein (Homo sapiens (Human), UniProt O14910 103-193)
T13 construct: Order of GST and PDZ part and limits not seen in the excerpts
T13 sequence: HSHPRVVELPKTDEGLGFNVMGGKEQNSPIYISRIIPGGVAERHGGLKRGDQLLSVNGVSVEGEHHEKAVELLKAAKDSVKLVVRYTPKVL

[14] = target: T14, NOS1 PDZ-GST fusion protein (Homo sapiens (Human), UniProt P29475 11-100)
T14 construct: Order of GST and PDZ part and limits not seen in the excerpts

[15] = target: T15, K316 PDZ-GST fusion protein (Homo sapiens (Human), UniProt Q14CM0 72-159)
T15 construct: Order of GST and PDZ part and limits not seen in the excerpts

Measured: binding result

T15 sequence (Q14CM0 72-159 limits assumed): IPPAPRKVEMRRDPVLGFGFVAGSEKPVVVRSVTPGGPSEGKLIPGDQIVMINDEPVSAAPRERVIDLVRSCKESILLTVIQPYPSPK
T5 sequence (Q13009 other isoform, or with tags, fused parts or gaps): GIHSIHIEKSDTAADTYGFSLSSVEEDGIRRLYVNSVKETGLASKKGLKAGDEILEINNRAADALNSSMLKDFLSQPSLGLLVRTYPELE
T8 sequence (Q2T9M1 other isoform, or with tags, fused parts or gaps limits assumed): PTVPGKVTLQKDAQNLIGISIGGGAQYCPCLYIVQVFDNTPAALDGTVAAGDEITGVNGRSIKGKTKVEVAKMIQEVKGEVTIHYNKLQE
T14 sequence (P29475 11-100 limits assumed): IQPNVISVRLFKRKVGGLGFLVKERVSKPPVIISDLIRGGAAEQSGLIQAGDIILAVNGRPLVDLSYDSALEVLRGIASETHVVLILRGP

B1: Spectrin (beta) C-terminal peptide AA32L, biotinylated (peptide)
peptide: Biotin-SFPPCGHRENVPGQSLVSFV
notes: Marked (S), sticky; also called Spectrin beta (S); Spectrin β
not listed: [10] | [11] | [12] | [13] | [14] | [15]
no binding: all other assays above

Biotin-AWDDSARAAGGQGLHVTAL [LPAP C-terminal peptide AA30L, biotinylated]
not listed: [14] | [15]
no binding: all other assays above

B2: V-gated Ca2+ channel C-terminal peptide AA46L (peptide)
peptide: Biotin-SSGGRARHSYHHPDQDHWC
notes: Marked (S), sticky peptide with high background; also called V-gated Ca2+ channel (S)
not listed: [8] | [9] | [13] | [15]
no binding: all other assays above

Biotin-TREDIYVNYPTFSRRPKTRV [DNAM-1 C-terminal peptide AA22L, biotinylated]
not listed: [12] | [14]
no binding: all other assays above

B3: CDw137 (4-1BB ILA) C-terminal peptide AA21L (peptide)
peptide: Biotin-QEEDGCSCRFPEEEEGGCEL
modifications: cysteine pairing not given here
notes: Marked (S), sticky peptide with high background; also called CDw137 (4-1BB ILA) (S)
not listed: [7] | [8] | [9] | [13] | [15]
no binding: all other assays above

Biotin-QFMTADETRNLQNVDMKIGV (also called CD44 (long form)) [CD44 C-terminal peptide AA9L, biotinylated]
not listed: [2] | [4] | [12]
no binding: all other assays above

Biotin-ARKANMKGSYSLVEAQKSKV (also called CD106) [VCAM1 C-terminal peptide AA17L, biotinylated]
not listed: [5] | [12]
no binding: all other assays above

B4: PAG C-terminal peptide AA58L, biotinylated (peptide)
peptide: Biotin-KENDYESISDLQQGRDITRL
notes: also called Phosphoprotein Associated with GEMs
not listed: [15]
no binding: all other assays above
